Experimental findings from US8840891 (RSR, dated 2014) are described below.

The target of test [1] is human TSHR, wild type, expressed on CHO cells (human) (UniProt P16473). The test can be described thus: cell-based or functional assay.
For test [2], the target named is T1, TSHR coated onto tubes (human, UniProt P16473 21-764, limits assumed).
T1 construct: whole entry named; also called TSHR coated tubes; thyrotropin receptor
The test can be described thus: TSHR coated tubes, competitor 125I-TSH.

The target of test [3] is T1, TSHR coated onto tubes. The test can be described thus: TSHR coated tubes, competitor 125I-5C9 IgG.
The target of test [4] is T1, TSHR coated onto tubes. The test can be described thus: TSHR coated tubes, competitor 125I-M22 IgG.
Test [5] deals with human TSHR (wild type) expressed in CHO cells (human) (UniProt P16473). The test is described as follows: cell-based or functional assay.

In the case of “recombinant human TSH (NIBSC reference preparation 94/674) (from UniProt P01215 25-116; P01222 21-138) (ligand)”, in test [1], the cyclic AMP; Exp 1; recombinant human TSH 100 ng/mL only was found to be 12.7 pmol/mL, the cyclic AMP; Exp 2; recombinant human TSH 100 ng/mL only was found to be 16.7 pmol/mL and the cyclic AMP; Exp 3; recombinant human TSH 100 ng/mL only was 26.4 pmol/mL.
Take “native human TSH (NIBSC reference preparation 81/565) (from UniProt P01215 25-116; P01222 21-132) (ligand)”: in test [1], the cyclic AMP; Exp 1; native human TSH 100 ng/mL only came out at 36.1 pmol/mL, the cyclic AMP; Exp 2; native human TSH 100 ng/mL only was 40.8 pmol/mL and the cyclic AMP; Exp 3; native human TSH 100 ng/mL only was 31.1 pmol/mL.

B1: 14D3 IgG (antibody, V domains shown)
VH: DVQMQQPGPELVKPGASLKMSCKASGYSFTGYNMHWVKQSHGKSLEWIGYIDPYSGATSYNQKFEGKATLTVDKSSSTAYMQLNSLTSEDSAVYYCARRWDWDPYAMDYWGQGTSVTVSS
VL: NILMTQSPAILSVSPGERVSFACRASQSIGTSIHWYQQRTNGSPRLLIKYASESISGIPSRFSGSGSGTDFTLSINSVESEDIADYYCQQTNRWPLTFGAGTKLELKR
For B1, in test [2], the “% inhib of 125I-TSH binding at 0.01 µg/mL” value came out at 4%, the “% inhib of 125I-TSH binding at 0.1 µg/mL” value came out at 12.5%, the “% inhib of 125I-TSH binding at 1 µg/mL” value turned out to be 37% and the “% inhib of 125I-TSH binding at 10 µg/mL” value was 52%. Also, the “% inhib of 125I-TSH binding at 100 µg/mL” value in test [2] came to 57%. In test [3], the “% inhib of 125I-5C9 IgG binding at 0.01 µg/mL” value worked out at 1%, the “% inhib of 125I-5C9 IgG binding at 0.1 µg/mL” value turned out to be 10%, the “% inhib of 125I-5C9 IgG binding at 1 µg/mL” value stood at 35% and the “% inhib of 125I-5C9 IgG binding at 10 µg/mL” value worked out at 50.5%. In addition, the “% inhib of 125I-5C9 IgG binding at 100 µg/mL” value in test [3] came to 63%. Moreover, in test [4], the “% inhib of 125I-M22 IgG binding at 0.01 µg/mL” value turned out to be 3%, the “% inhib of 125I-M22 IgG binding at 0.1 µg/mL” value turned out to be 15%, the “% inhib of 125I-M22 IgG binding at 1 µg/mL” value was 37% and the “% inhib of 125I-M22 IgG binding at 10 µg/mL” value was found to be 60%. In test [4], the “% inhib of 125I-M22 IgG binding at 100 µg/mL” value worked out at 62%.

B2: 16E5 IgG (antibody, V domains shown)
VH: DVQLVQSGPELVKPGASVKMSCKASGYSFTGYNMHWVKQSHGKSLEWIGYIDPYNGATSYNQKFEDKATLTVDKSSSTAYMQLNSLTSEDSAVYYCARRWDWDPYAMDYWGQGTSVTVSS
VL: DILLTQSPAILSVSPGERVSFSCRASQSIGTSIHWYQQRTNGSPRLLIKYASESISGIFSRFSGSGSGTDFTLTINSVESEDIADYYCQQSNRWPLTFGAGTKLELKR
On to B2, for which, in test [2], the “% inhib of 125I-TSH binding at 0.01 µg/mL” value stood at 9%, the “% inhib of 125I-TSH binding at 0.1 µg/mL” value is 26%, the “% inhib of 125I-TSH binding at 1 µg/mL” value amounted to 39% and the “% inhib of 125I-TSH binding at 10 µg/mL” value turned out to be 44%. Also, the “% inhib of 125I-TSH binding at 100 µg/mL” value in test [2] turned out to be 48%. Also, in test [3], the “% inhib of 125I-5C9 IgG binding at 0.01 µg/mL” value amounted to 20%, the “% inhib of 125I-5C9 IgG binding at 0.1 µg/mL” value amounted to 34%, the “% inhib of 125I-5C9 IgG binding at 1 µg/mL” value is 47% and the “% inhib of 125I-5C9 IgG binding at 10 µg/mL” value was 53%. In test [3], the “% inhib of 125I-5C9 IgG binding at 100 µg/mL” value is 59%. Moreover, in test [4], the “% inhib of 125I-M22 IgG binding at 0.01 µg/mL” value was 12%, the “% inhib of 125I-M22 IgG binding at 0.1 µg/mL” value was determined as 22%, the “% inhib of 125I-M22 IgG binding at 1 µg/mL” value was found to be 40% and the “% inhib of 125I-M22 IgG binding at 10 µg/mL” value is 51%. For the same molecule, the “% inhib of 125I-M22 IgG binding at 100 µg/mL” value in test [4] is 53%.

B3: 17D2 IgG (antibody, V domains shown)
VH: DVQIQQSGPELVKPGASVKMSCKASGYSFTAYNMHWVKQTHGKSLEWIGYIDPYSGATSYHQKFKGKATLTVDKSSSTAYMRLNSLTSEDSAVYYCARRWDWDPYAMDYWGQGTSVTVSS
VL: SVEMSQSPAILSVSPGERISFSCRASQSIGTSIHWYQQRTNGSPRLLIKYASASISGIPSRFSGSGSGTDFTLSINSVESEDIADYYCQQSNSWPLTFGAGTKLELKR
For the molecule B3, in test [2], the “% inhib of 125I-TSH binding at 0.01 µg/mL” value was 3%, the “% inhib of 125I-TSH binding at 0.1 µg/mL” value was determined as 7%, the “% inhib of 125I-TSH binding at 1 µg/mL” value is 24% and the “% inhib of 125I-TSH binding at 10 µg/mL” value worked out at 43%. Further, the “% inhib of 125I-TSH binding at 100 µg/mL” value in test [2] came to 56%. Moreover, in test [3], the “% inhib of 125I-5C9 IgG binding at 0.01 µg/mL” value worked out at 3%, the “% inhib of 125I-5C9 IgG binding at 0.1 µg/mL” value came out at 11%, the “% inhib of 125I-5C9 IgG binding at 1 µg/mL” value is 26% and the “% inhib of 125I-5C9 IgG binding at 10 µg/mL” value is 43%. For the same molecule, the “% inhib of 125I-5C9 IgG binding at 100 µg/mL” value in test [3] was determined as 55%. Besides, in test [4], the “% inhib of 125I-M22 IgG binding at 0.01 µg/mL” value is 1%, the “% inhib of 125I-M22 IgG binding at 0.1 µg/mL” value came out at 13%, the “% inhib of 125I-M22 IgG binding at 1 µg/mL” value came out at 24% and the “% inhib of 125I-M22 IgG binding at 10 µg/mL” value is 39%. Further, in test [4], the “% inhib of 125I-M22 IgG binding at 100 µg/mL” value stood at 49%.

B4: 5C9 Fab (Fab, from another filing, V domains shown)
VH: EVQLVESGGGLIQPGGSLRLSCAASGFTVSSNYMSWVRQAPGKGLEWVSVTYSGGSTSYADSVKGRFTISRDNSKNTLYLQMNSLRAEDTAVYYCARGGRYCSSISCYARSGCDYWGQGTLVTVSS
VL: AIQMTQSPSSLSASVGDRVTITCRASQSISNYLNWYQQKPGKAPKLLIYAASSLQSGVPSRFSGSGSGTDFTLTISSLQPEDFATYYCQQSYSSPSTTFGQGTKLEIK
Regarding B4, in test [5], the cyclic AMP; Example 1; 5C9 Fab 10 µg/mL + TSH (fmol/cell well) was determined as 1280, the cyclic AMP; Example 1; 5C9 Fab 100 µg/mL + TSH (fmol/cell well) stood at 938, the cyclic AMP; Example 1; 5C9 Fab 100 µg/mL only (fmol/cell well) was found to be 235 and the cyclic AMP; Example 2; 5C9 Fab 10 µg/mL + TSH (fmol/cell well) amounted to 4130. Moreover, in test [5], the cyclic AMP; Example 2; 5C9 Fab 100 µg/mL + TSH (fmol/cell well) was 867 and the cyclic AMP; Example 2; 5C9 Fab 100 µg/mL only (fmol/cell well) came to 212. In test [1], the % inhibition of basal cyclic AMP production; Exp 3; 5C9 F(ab′) 0.001 µg/mL came to 3%, the % inhibition of basal cyclic AMP production; Exp 3; 5C9 F(ab′) 0.1 µg/mL worked out at 19%, the % inhibition of basal cyclic AMP production; Exp 3; 5C9 F(ab′) 1 µg/mL came out at 23% and the % inhibition of basal cyclic AMP production; Exp 3; 5C9 F(ab′) 10 µg/mL was found to be 39%. In test [1], this molecule came in with a % inhibition of basal cyclic AMP production; Exp 3; 5C9 F(ab′) 100 µg/mL of 48%, a % inhibition of basal cyclic AMP production; Exp 3; 5C9 Fab 0.1 µg/mL of 11%, a % inhibition of basal cyclic AMP production; Exp 3; 5C9 Fab 1 µg/mL of 39% and a % inhibition of basal cyclic AMP production; Exp 3; 5C9 Fab 10 µg/mL of 46%. The % inhibition of basal cyclic AMP production; Exp 3; 5C9 Fab 100 µg/mL in test [1] is 61%.

B5: 2B4 IgG (antibody, V domains shown)
VH: DVQLQQSGTVLARPGASVRMSCKASGYSFTRYWIHWLKQRPGQGLEWIGAIFPGNRDTSYNQRFKGKAEVTAVTSASTAYLDLSSLTNEDSAVYYCTRWPYYGSIYVNFDYWGQGTTLTVSS
VL: DIVMTQSPLSLPVSLGDQASISCRTSQNLVHRNGNTYLHWYLQKPGQSPKLLIYKISNRFSGVPDRFSGSGSGTDFTLKISRVEAEDLGVYFCSQGTHVPPTFGGGTKLEIKR
Turning to B5, in test [2], the “% inhib of 125I-TSH binding at 0.01 µg/mL” value stood at 13.5%, the “% inhib of 125I-TSH binding at 0.1 µg/mL” value was 56%, the “% inhib of 125I-TSH binding at 1 µg/mL” value was 82% and the “% inhib of 125I-TSH binding at 10 µg/mL” value turned out to be 85%. The “% inhib of 125I-TSH binding at 100 µg/mL” value in test [2] came to 88.5%. In test [3], the “% inhib of 125I-5C9 IgG binding at 0.01 µg/mL” value amounted to 8%, the “% inhib of 125I-5C9 IgG binding at 0.1 µg/mL” value stood at 23%, the “% inhib of 125I-5C9 IgG binding at 1 µg/mL” value turned out to be 42% and the “% inhib of 125I-5C9 IgG binding at 10 µg/mL” value was 48%. Moreover, the “% inhib of 125I-5C9 IgG binding at 100 µg/mL” value in test [3] was 72%. For the same molecule, in test [4], the “% inhib of 125I-M22 IgG binding at 0.01 µg/mL” value is 1%, the “% inhib of 125I-M22 IgG binding at 0.1 µg/mL” value turned out to be 12%, the “% inhib of 125I-M22 IgG binding at 1 µg/mL” value is 9% and the “% inhib of 125I-M22 IgG binding at 10 µg/mL” value is 19%. Moreover, in test [4], the “% inhib of 125I-M22 IgG binding at 100 µg/mL” value came out at 30%.
